Measured values from paper PMC3500399.

Target: SCR^AxCxA, split Renilla luciferase fusion (Arabidopsis thaliana) (UniProt Q9M384)
Assay: split reporter

UniProt Q9M384, sequence (Q9M384 whole entry, the tested form may be a part): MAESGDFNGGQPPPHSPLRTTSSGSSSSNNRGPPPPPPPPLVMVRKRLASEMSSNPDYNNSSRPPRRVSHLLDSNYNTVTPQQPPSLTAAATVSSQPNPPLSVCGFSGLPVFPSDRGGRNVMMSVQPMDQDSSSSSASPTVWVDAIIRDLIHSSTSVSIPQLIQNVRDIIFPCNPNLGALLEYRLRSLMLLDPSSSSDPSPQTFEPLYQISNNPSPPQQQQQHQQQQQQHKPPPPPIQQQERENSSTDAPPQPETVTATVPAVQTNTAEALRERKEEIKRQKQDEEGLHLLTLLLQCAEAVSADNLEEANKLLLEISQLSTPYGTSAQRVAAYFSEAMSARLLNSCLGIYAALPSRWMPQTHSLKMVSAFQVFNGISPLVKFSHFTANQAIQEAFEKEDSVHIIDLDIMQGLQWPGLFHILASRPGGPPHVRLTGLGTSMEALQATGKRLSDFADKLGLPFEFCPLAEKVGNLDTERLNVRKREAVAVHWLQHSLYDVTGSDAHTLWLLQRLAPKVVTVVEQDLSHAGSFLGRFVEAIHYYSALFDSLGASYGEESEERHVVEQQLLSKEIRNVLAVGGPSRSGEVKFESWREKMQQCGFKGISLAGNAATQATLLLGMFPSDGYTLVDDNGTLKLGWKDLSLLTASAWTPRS

B1: RBR, split Renilla luciferase fusion (natural protein)
chain: MEEVQPPVTPPIEPNGKRSEASLLDICEKVLSLDGSTCDEALKLFTETKRILSASMSNIGSGTREEVERFWFAFILYSVKRLSVRKEADGLSVSGDNEFNLCQILRALKLNIVDFFKELPQFVVKAGSVLGELYGADWENRLQAKEVQANFVHLSLLSKYYKRGFREFFLTYDANAEKNSANSSTYLLDSYRFGWLLFLALRNHAFSRFKDLVTCSNGVVSILAILIIHVPCRFRNFSIQDSSRFVKKGDKGVDLVASLCKIYDASEDELRIVIDKANNLVETILKKKPSPASECQTDKLDNIDPDGLTYFEDLLEETSISTSLITLEKDYYDGKGELDERVFINEEDSLLGSGSLSAGAVNITGVKRKIDALSSPARTFISPLSPHKSPAAKTNGISGATKLAATPVSTAMTTAKWLRTVISPLLPKPSPGLEHFLKSCDRDITNDVTRRAHIILEAIFPNSSLGAQCGGGSLQAVDLMDDIWAEQRRLEACKLYYRVLEAMCKAEAQILHANNLNSLLTNERFHRCMLACSAELVLATHKTITMLFPAVLERTGITAFDLSKVIESFIRHEDSLPRELRRHLNSLEERLLESMVWEKGSSMYNSLIVARPSLALEINQLGLLAEPMPSLDAIAALINFSDGANHASSVQKHETCPGQNGGIRSPKRLCTDYRSILVERNSFTSPVKDRLLALGNVKSKMLPPPLQSAFASPTRPNPGGGGETCAETGINIFFTKINKLAAVRINGMVERLQLSQQIRESVYCFFQHVLAQRTSLLFSRHIDQIILCCFYGVAKISQMSLTFREIIYNYRKQPQCKPLVFRSVYVDALQCRRQGRIGPDHVDIITFYNEIFIPAVKPLLVELGPVRNDRAVEANNKPEGQCPGSPKVSVFPSVPDMSPKKVSAVHNVYVSPLRGSKMDALISHSTKSYYACVGESTHAYQSPSKDLSAINNRLNNSSSNRKRTLNFDAEAGMVSDSMVANSLNLQNQNQNQNGSDASSSGGAAPLKTEPTDS
- percent of the RBR-SCR interaction (split Renilla luciferase): 11%
